Reference: publication PMC10990931, “Cryo-EM structures of RAD51 assembled on nucleosomes containing a DSB site” (Nature, 2024)

Tests used:
[1] = target: nucleosome (human histones H2A, H2B, H3.1 and H4 with Widom 601 DNA), P04908;P06899;P68431;P62805; experiment: electrophoretic mobility shift assay; conditions: read off a plot
[2] = target: the molecule itself; experiment: cryo-EM micrographs; RAD51 alone, without nucleosome and DNA (WT 92.5 µM, K64A/K70A 73.3 µM, R235D 55.2 µM), 1 mM AMP-PNP; 37 °C 30 min, 34 mM HEPES-NaOH pH 7.5, 135 mM NaCl, 1 mM MgCl2; filament formation
[3] = ADP, RAD51 3.6 µM, parent: est. 100
[4] = AMP-PNP, RAD51 1.2 µM, parent: est. 33
[5] = AMP-PNP, RAD51 2.4 µM, parent: est. 92
[6] = AMP-PNP, RAD51 3.6 µM, parent: est. 99

Row | response [1, 3] | response [1, 4] | response [1, 5] | response [1, 6] | Molecule | binding result [2]
1 | -5% | 3% | 20% | 59% | human RAD51 (from UniProt Q06609) K64A; K70A | 
2 | -1% | 26% | 86% | 98% | human RAD51 (from UniProt Q06609) K64A | 

Continued, molecule first:

Row | Molecule | response [1, 3] | response [1, 4] | response [1, 5] | response [1, 6] | binding result [2]
3 | human RAD51 (from UniProt Q06609) K70A | -9% | 19% | 78% | 93% | 
4 | RAD51(K64A/K70A) (natural protein, human, RAD51, human; source: E. coli, purified (Ni-NTA agarose, thrombin, spermidine precipitation, MonoQ)) MAMQMQLEANADTSVEEESFGPQPISRLEQCGINANDVKKLEEAGFHTVEAVAYAPKKELINIAGISEAAADKILAEAAKLVPMGFTTATEFHQRRSEIIQITTGSKELDKLLQGGIETGSITEMFGEFRTGKTQICHTLAVTCQLPIDRGGGEGKAMYIDTEGTFRPERLLAVAERYGLSGSDVLDNVAYARAFNTDHQTQLLYQASAMMVESRYALLIVDSATALYRTDYSGRGELSARQMHLARFLRMLLRLADEFGVAVVITNQVVAQVDGAAMFAADPKKPIGGNIIAHASTTRLYLRKGRGETRICKIYDSPCLPEAEAMFAINADGVGDAKD |  |  |  |  | binds
5 | RAD51(R235D) (natural protein, human, RAD51, human; source: E. coli, purified (Ni-NTA agarose, thrombin, spermidine precipitation, MonoQ)) MAMQMQLEANADTSVEEESFGPQPISRLEQCGINANDVKKLEEAGFHTVEAVAYAPKKELINIKGISEAKADKILAEAAKLVPMGFTTATEFHQRRSEIIQITTGSKELDKLLQGGIETGSITEMFGEFRTGKTQICHTLAVTCQLPIDRGGGEGKAMYIDTEGTFRPERLLAVAERYGLSGSDVLDNVAYARAFNTDHQTQLLYQASAMMVESRYALLIVDSATALYRTDYSGDGELSARQMHLARFLRMLLRLADEFGVAVVITNQVVAQVDGAAMFAADPKKPIGGNIIAHASTTRLYLRKGRGETRICKIYDSPCLPEAEAMFAINADGVGDAKD |  |  |  |  | binds
